Entries after “also recorded” stand apart in the source; their conditions may differ.
How the values were obtained:
[1] = target: T1, human CD39-expressing CHO cells (Homo sapiens, UniProt P49961); experiment: Inhibition of the enzymatic activity of cellular CD39, CHO-huCD39 cells; format: cell-based; details: result in words
T1 construct: expressed in transfected cells; host or cells: CHO cells
T1 sequence (P49961 1-510): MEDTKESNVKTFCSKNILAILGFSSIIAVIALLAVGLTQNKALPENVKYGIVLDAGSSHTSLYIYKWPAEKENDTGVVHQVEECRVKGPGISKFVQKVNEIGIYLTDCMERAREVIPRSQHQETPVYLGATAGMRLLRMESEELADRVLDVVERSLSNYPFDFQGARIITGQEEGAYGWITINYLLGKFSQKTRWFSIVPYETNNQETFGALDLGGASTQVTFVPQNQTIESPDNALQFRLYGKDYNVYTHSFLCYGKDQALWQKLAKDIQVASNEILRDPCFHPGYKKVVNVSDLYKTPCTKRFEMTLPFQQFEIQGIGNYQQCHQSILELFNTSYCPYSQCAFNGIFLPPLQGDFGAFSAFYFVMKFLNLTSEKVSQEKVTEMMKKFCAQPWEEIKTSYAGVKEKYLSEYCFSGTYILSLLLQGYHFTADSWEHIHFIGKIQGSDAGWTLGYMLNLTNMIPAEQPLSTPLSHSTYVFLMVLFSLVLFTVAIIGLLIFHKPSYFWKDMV
Protocol: (§1) The inhibition of the CD39 enzymatic activity in CD39-expressing cells by antibodies was evaluated using Cell Titer Glo™ (Promega, reference G7571) that allows assessment of ATP hydrolysis through use of a reagent that generates a luminescent signal proportional to the amount of ATP present. The assay was thus designed to permit assessment of the inhibition of ATP hydrolyzed by CD39 in the cell culture supernatant. Briefly, 5×10^4 Ramos human lymphoma cells, 5×10^3 human CD39-, cynomolgus CD39- and mouse CD39-expressing CHO cells, were incubated 1 hour at 37° C. with anti-CD39 antibodies from 30 μg/ml to 5×10^−4 μg/ml. Cells were then incubated with 20 μM ATP for 1 additional hour at 37° C. Plates were centrifuged for 2 min at 400 g and 50 μl cell supernatant are transferred in a luminescence microplate (white wells). 50 μl CellTiter-Glo® Reagent (CTG) was added to the supernatant and emitted light was quantified after a 5 min incubation in the dark using a Enspire™ luminometer. Anti-CD39 antibody efficacy was determined by comparing emitted light in presence of antibody with ATP alone (maximal light emission) and ATP together with cells (minimal light emission).

[2] = system: cynomolgus CD39-expressing CHO cells; experiment: Inhibition of the enzymatic activity of cellular CD39, CHO-cyCD39 cells; format: cell-based; details: result in words
Protocol: as §1

[3] = target: T2, human Ramos lymphoma cells (Homo sapiens, UniProt P49961); experiment: Antibody titration by flow cytometry on Ramos cells; format: binding
T2 construct: host or cells: Ramos human lymphoma cells
T2 sequence (P49961 1-510): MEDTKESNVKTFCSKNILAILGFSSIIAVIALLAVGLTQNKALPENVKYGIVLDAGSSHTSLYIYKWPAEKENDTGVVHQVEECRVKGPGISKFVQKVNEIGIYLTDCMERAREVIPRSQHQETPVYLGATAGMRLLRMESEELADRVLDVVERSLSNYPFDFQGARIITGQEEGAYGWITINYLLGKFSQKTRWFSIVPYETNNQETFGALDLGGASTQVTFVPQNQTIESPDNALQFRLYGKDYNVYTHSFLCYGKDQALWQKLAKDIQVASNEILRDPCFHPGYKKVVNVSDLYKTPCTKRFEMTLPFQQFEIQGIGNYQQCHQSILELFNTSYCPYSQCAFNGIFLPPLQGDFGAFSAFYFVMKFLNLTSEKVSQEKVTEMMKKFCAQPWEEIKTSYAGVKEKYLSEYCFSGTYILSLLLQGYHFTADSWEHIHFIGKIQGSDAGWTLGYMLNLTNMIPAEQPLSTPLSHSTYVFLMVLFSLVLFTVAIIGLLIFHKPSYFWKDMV
Protocol: (§2) Cells were incubated with various concentration of unlabeled anti-CD39 antibody from 30 μg/ml to 5×10^−4 μg/ml, for 30 minutes at 4° C. After washes, cells were incubated with Goat anti-mouse H+L labeled secondary antibody for 30 min at 4° C.

[4] = system: CHO cells expressing cynomolgus (macaca fascicularis) CD39; experiment: Antibody titration by flow cytometry on CHO-cyCD39; format: binding
Protocol: as §2

human CD39 = target: T3, human CD39 (Homo sapiens, UniProt P49961); experiment: ELISA titration on human CD39; format: binding; details: coated recombinant protein, OD=450
T3 sequence (P49961 1-510): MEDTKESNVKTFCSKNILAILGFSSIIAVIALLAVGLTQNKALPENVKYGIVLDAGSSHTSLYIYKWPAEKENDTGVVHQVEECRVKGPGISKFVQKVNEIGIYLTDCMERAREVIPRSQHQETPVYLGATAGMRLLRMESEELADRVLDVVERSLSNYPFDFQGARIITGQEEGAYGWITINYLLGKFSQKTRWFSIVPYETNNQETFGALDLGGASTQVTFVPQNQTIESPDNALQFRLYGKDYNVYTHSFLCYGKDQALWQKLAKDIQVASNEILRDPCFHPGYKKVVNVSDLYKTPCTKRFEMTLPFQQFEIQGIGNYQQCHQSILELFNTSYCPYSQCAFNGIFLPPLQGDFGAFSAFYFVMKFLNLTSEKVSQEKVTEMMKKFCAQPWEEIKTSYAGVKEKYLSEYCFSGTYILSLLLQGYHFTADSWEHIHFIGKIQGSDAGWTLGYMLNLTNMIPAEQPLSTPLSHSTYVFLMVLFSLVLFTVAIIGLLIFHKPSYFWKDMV
Protocol: (§3) Wells were washed in TBS Tween 20, and further saturated 2H at RT in TBS Blocking buffer. Dose range concentration of primary antibody was incubated in TBS blocking buffer for 2 h at RT. Wells were washed in TBS Tween 20. […] Optical density was measured on Enspire™ at OD=450.

[5] = target: T4, Human CD39-L1, also known as NTPDase2 or ENTPD2 (Homo sapiens, UniProt Q9Y5L3); experiment: ELISA titration on CD39-L1; format: binding; details: coated recombinant protein, OD=450
T4 sequence (Q9Y5L3 1-472 isoform Q9Y5L3-2): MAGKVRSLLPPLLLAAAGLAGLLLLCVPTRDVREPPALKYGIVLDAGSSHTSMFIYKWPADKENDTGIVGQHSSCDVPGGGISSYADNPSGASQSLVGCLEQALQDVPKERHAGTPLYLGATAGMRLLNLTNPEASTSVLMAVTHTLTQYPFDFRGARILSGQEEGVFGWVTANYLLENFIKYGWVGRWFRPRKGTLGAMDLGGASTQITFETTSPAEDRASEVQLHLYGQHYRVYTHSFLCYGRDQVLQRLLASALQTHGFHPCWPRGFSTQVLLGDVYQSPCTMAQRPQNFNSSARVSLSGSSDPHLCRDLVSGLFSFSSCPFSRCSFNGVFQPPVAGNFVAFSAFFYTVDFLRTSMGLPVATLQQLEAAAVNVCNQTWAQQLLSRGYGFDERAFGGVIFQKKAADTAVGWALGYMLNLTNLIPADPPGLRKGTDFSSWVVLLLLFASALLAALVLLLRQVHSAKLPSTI
Protocol: as §3

[6] = system: monocyte-derived DC (moDC); experiment: Activation of monocyte-derived dendritic cells in presence of ATP; format: cell-based, human; details: ATP at 0.125 mM, 0.25 mM or 0.5 mM, 24 hours; I-394 shown at 10 μg/ml
Protocol: While ATP has pro-inflammatory activity, CD39-mediated catabolism of ATP is believed to be able to impair dendritic cell (DC) activation, in turn altering a broader adaptive immune response against tumor antigen. In order to evaluate whether CD39 blockade using anti-CD39 antibodies could overcome CD39-mediated alteration of dendritic cell (DC) activation in the presence of ATP, we incubated monocyte-derived DC (moDC) with anti-CD39 antibodies in the presence of ATP.
Briefly, human monocytes were purified from human healthy blood and differentiated into MoDC in presence of GM-CSF and IL-4 during 6 days. […] LPS (Invivogen, 10 ng/ml) was used as positive control. To assess resulting effect of ATP-mediated DC activation on CD4 T cells activation, ATP-activated DC were washed and then incubated with allogenic CD4 T cells (ratio 1 MoDC/4 T cells) for a mixed lymphocytes reaction (MLR) during 5 days. T cells activation and proliferation were analyzed through CD25 expression and Cell Trace Violet dilution by flow cytometry (FIG. 8).

allogenic CD4 T cells = experiment: Mixed lymphocytes reaction (MLR) of ATP-activated DC with allogenic CD4 T cells; format: cell-based, human; details: ATP-activated MoDC, 1 MoDC/4 T cells, 5 days
Protocol: T cells activation and proliferation were analyzed through CD25 expression and Cell Trace Violet dilution by flow cytometry.
Briefly, human monocytes were purified from human healthy blood and differentiated into MoDC in presence of GM-CSF and IL-4 during 6 days. Then MoDC were activated in presence of ATP (Sigma, 0.25-1 mM) during 24 hours and DC activation were assessed by analyzing CD80, CD83 and HLA-DR expression by flow cytometry. […] LPS (Invivogen, 10 ng/ml) was used as positive control. To assess resulting effect of ATP-mediated DC activation on CD4 T cells activation, ATP-activated DC were washed and then incubated with allogenic CD4 T cells (ratio 1 MoDC/4 T cells) for a mixed lymphocytes reaction (MLR) during 5 days. T cells activation and proliferation were analyzed through CD25 expression and Cell Trace Violet dilution by flow cytometry (FIG. 8).

B1: I-394: anti-CD39 antibody, VH SEQ ID NO: 3, VL SEQ ID NO: 4; heavy and light chains SEQ ID NOS: 37 and 38 (antibody)
heavy: EVQLQQSGPELVKPGASVKMSCKASGYTFTDYNMHWVKQSHGRTLEWIGYIVPLNGGSTFNQKFKGRATLTVNTSSRTAYMELRSLTSEDSAAYYCARGGTRFAYWGQGTLVTVSAASTKGPSVFPLAPSSKSTSGGTAALGCLVKDYFPEPVTVSWNSGALTSGVHTFPAVLQSSGLYSLSSVVTVPSSSLGTQTYICNVNHKPSNTKVDKRVEPKSCDKTHTCPPCPAPEAEGAPSVFLFPPKPKDTLMISRTPEVTCVVVDVSHEDPEVKFNWYVDGVEVHNAKTKPREEQYNSTYRVVSVLTVLHQDWLNGKEYKCKVSNKALPSSIEKTISKAKGQPREPQVYTLPPSREEMTKNQVSLTCLVKGFYPSDIAVEWESNGQPENNYKTTPPVLDSDGSFFLYSKLTVDKSRWQQGNVFSCSVMHEALHNHYTQKSLSLSPGK
light: DIVLTQSPASLAVSLGQRATISCRASESVDNFGVSFMYWFQQKPGQPPNLLIYGASNQGSGVPARFRGSGSGTDFSLNIHPMEADDTAMYFCQQTKEVPYTFGGGTKLEIKRTVAAPSVFIFPPSDEQLKSGTASVVCLLNNFYPREAKVQWKVDNALQSGNSQESVTEQDSKDSTYSLSSTLTLSKADYEKHKVYACEVTHQGLSSPVTKSFNRGEC
modifications: Chimeric homo sapiens mus musculus
blocking CD39 enzymatic activity in cells expressing human CD39 (CHO-huCD39) [1]: blocks CD39 enzymatic activity; also recorded: highly potent at blocking CD39 enzymatic activity
blocking CD39 enzymatic activity in cells expressing cynomolgus CD39 (CHO-cyCD39) [2]: blocks CD39 enzymatic activity; also recorded: highly potent at blocking CD39 enzymatic activity
binding to Ramos lymphoma cells [3]: bound; also recorded: binds
binding to cells expressing cynomolgus CD39 (CHO-cyCD39) [4]: bound; also recorded: binds
binding to human CD39 in ELISA (human CD39): bound; also recorded: binds to human CD39
binding to CD39-L1 in ELISA [5]: not to any of the human isoforms
moDC activation as assessed by HLA-DR or CD83 expression [6]: permitted moDC activation; also recorded: lead to moDC activation
T cell proliferation and activation (CD25 expression, Cell Trace Violet dilution) in MLR (allogenic CD4 T cells): higher T cell proliferation and activation

From patent publication US20190218304A1, “POTENTIATING THE EFFECT OF ATP RELEASE” (INNATE PHARMA, priority 2017, published 2019)
